Kd data for 2 molecules are collected here from PMC2957522 (Journal of molecular biology, 2010).

The test deals with rabbit skeletal muscle actin (monomeric, Mg-εATP-actin) (rabbit, UniProt P68135 1-377). In words: actin nucleotide exchange kinetics.

B1: Toxoplasma gondii profilin (TgPRF) (natural protein)
chain: MSDWDPVVKEWLVDTGYCCAGGIANAEDGVVFAAAADDDDGWSKLYKDDHEEDTIGEDGNACGKVSINEASTIKAAVDDGSAPNGVWIGGQKYKVVRPEKGFEYNDCTFDITMCARSKGGAHLIKTPNGSIVIALYDEEKEQDKGNSRTSALAFAEYLHQSGY
modifications: selenomethionine-substituted (level of selenium substitution essentially 100%)
As for B1, the Kd turned out to be 13.9 ± 5 µM.

B2: TgPRF β-hairpin deletion mutant (ΔBH) (natural protein)
chain: MSDWDPVVKEWLVDTGYCCAGGIANAEDGVVFAAAADDDDGWSKLYKDDNEASTIKAAVDDGSAPNGVWIGGQKYKVVRPEKGFEYNDCTFDITMCARSKGGAHLIKTPNGSIVIALYDEEKEQDKGNSRTSALAFAEYLHQSGY
In the case of B2, the Kd is > 150 µM.

Broadly, the Kd is a measure of binding affinity in units of concentration.
